Measured values published in paper doi:10.1101/2024.09.29.615664.

Target: reconstituted mononucleosome with unmodified H3K56 (UniProt P68431)
Assay: pull-down

- fold of MSH3 pulled down against the H3K56ac-nucleosome: 4 fold
Substance: MutSβ (MSH2-MSH3 complex), purified (from UniProt P43246;P20585)
